Patent US20200354457A1 (Hoffmann-La Roche, published 2020)
Values joined by “and” are separate entries in the source; they are usually repeats but may differ in a detail not shown here. Equal entries are not always repeated.

What was measured:
[1] = biological target: T1, murine LAG3-Fc antigen (R&D Systems, 3328-L3-050) (murine, UniProt Q61790 24-442); assay: ELISA using murine LAG3-Fc antigen
T1 construct: Bought reagent
T1 sequence (looked up): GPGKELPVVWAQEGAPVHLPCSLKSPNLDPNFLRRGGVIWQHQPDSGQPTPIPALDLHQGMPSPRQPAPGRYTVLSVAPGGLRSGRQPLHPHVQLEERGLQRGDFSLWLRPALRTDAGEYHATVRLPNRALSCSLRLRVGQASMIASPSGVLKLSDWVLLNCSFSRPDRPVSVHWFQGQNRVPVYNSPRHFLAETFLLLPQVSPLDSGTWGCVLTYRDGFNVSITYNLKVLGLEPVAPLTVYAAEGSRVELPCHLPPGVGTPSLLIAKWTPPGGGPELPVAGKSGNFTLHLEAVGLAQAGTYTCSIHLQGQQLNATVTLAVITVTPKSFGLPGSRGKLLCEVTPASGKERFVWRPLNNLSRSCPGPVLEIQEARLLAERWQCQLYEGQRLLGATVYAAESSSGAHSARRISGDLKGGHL

[2] = biological target: T2, human LAG3 on recombinant CHO cells (human, UniProt P18627 23-525); assay: cell ELISA on CHO cells expressing human LAG3;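 note: bivalent Fc-format binders titrated in threefold steps from 6 µg/mL, incubated with the cells 2 h at 4 °C, bound antibody detected by HRP-coupled anti-human IgG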
T2 construct: whole, on cells; also called Lag3 cells; recombinant CHO cells expressing Lag3
T2 sequence (looked up): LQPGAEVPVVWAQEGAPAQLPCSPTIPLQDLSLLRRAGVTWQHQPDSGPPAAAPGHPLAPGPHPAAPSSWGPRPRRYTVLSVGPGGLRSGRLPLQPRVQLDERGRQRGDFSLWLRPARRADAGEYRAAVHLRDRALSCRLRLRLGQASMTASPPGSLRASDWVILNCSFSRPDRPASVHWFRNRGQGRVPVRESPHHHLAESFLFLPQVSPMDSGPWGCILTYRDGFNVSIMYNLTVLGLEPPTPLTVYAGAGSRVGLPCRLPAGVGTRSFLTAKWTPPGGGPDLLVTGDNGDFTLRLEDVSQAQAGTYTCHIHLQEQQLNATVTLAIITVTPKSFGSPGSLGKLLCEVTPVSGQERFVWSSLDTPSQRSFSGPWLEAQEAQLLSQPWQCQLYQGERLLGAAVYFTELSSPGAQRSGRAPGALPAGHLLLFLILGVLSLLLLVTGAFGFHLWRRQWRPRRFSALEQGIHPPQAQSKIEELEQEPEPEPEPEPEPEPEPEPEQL

[3] = biological target: T3, recombinant human LAG3 Fc Chimera Protein (R&D Systems, 2319-L3) (human, UniProt P18627 23-450); assay: ELISA, plate coated with human LAG3 Fc chimera
T3 construct: Bought reagent
T3 sequence (looked up): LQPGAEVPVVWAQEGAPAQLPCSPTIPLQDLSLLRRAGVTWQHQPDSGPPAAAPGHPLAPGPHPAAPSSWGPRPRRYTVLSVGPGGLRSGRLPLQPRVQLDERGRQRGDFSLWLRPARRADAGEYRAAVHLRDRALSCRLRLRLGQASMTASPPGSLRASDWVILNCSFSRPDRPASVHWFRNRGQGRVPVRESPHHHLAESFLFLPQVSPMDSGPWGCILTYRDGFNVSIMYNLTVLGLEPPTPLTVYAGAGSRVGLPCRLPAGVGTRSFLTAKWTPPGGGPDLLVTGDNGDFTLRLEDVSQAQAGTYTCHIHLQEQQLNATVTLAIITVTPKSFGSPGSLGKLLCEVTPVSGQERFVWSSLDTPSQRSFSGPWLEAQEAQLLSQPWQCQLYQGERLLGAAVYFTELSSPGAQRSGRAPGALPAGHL

[4] = biological target: T3, recombinant human LAG3 Fc Chimera …; assay: SPR (Biacore), aVH-Fc captured by anti-human Fc, human LAG-3 Fc chimera as analyte, 25 C
[5] = biological target: T4, soluble human Lag3-IgG1-Fc with biotinylated C-terminal Avi-tag (human, biotin on the C-terminal Avi-tag); assay: A375 MHCII competition ELISA, biotinylated Lag3 250 ng/ml; competitor MHCII on A375 cells
T4 construct: also called LAG3-Fc-avi; biotinylated LAG3-Fc antigen

[6] = biological target: T3, recombinant human LAG3 Fc Chimera …; assay: SPR (Biacore), aVH-Fc captured by anti-human Fc, human LAG-3 Fc chimera as analyte, 25 C; * poor fit
[7] = biological target: T4, soluble human Lag3-IgG1-Fc with …; assay: A375 MHCII competition ELISA at 3 µg/ml, biotinylated Lag3 250 ng/ml; competitor MHCII on A375 cells

binding result [1]: no binding
EC50 [2]: 0.0169 µg/mL and 0.2 nM
OD max [2]: 1.2 OD
OD max [3]: 1.3 OD
t1/2 [4]: 2.4 min
IC50 [5]: 0.0903 µg/mL and 1.2 nM
koff [6]: 0.0048 s⁻¹
% Inhibition [7]: 92.4%
B1: bivalent P11A2 aVH-Fc (Fc fusion)
chain: EVQLVESGGGLVQPGGSLRLSCAASSFNIKDTYIGWVRRAPGKGTELVAEIACHEGTTRYADSVKGRFTISCDTSKNTAYLQMNSLRAEDTAVYYCANTEYDDIFDYWGQGTTVTVSSGGGGSGGGGSDKTHTCPPCPAPEAAGGPSVFLFPPKPKDTLMISRTPEVTCVVVDVSHEDPEVKFNWYVDGVEVHNAKTKPREEQYNSTYRVVSVLTVLHQDWLNGKEYKCKVSNKALGAPIEKTISKAKGQPREPQVYTLPPSRDELTKNQVSLTCLVKGFYPSDIAVEWESNGQPENNYKTTPPVLDSDGSFFLYSKLTVDKSRWQQGNVFSCSVMHEALHNHYTQKSLSLSPGK
